Data: the supplement of paper PMC10065799, “High-throughput profiling of sequence recognition by tyrosine kinases and SH2 domains using bacterial peptide display” (eLife, 2023)
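Also: 11-residue human phosphosite peptides and single-mutation variants displayed on the E. coli surface, counted by deep sequencing, each peptide's frequency after selection divided by its frequency in the unselected input library; frequency after pTyr selection over input frequency; kinase dosed for 20-30% of maximal phosphorylation in three min.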

These sequences were tested on c-Abl (mouse) (assay: phosphorylation enrichment, bacterial display (enrichment ratio); higher = better substrate or ligand; peptides without Tyr show the background).
With PTYENYANSTQ [SLC12A3_Y70_H69N] the phosphorylation enrichment was 0.418. For VPFARYLAMNK [HARS1_Y138], the phosphorylation enrichment was 0.328. In the case of STEEQYRICQV [EFHC1_Y115_R118C], the phosphorylation enrichment is reported as 0.999. KFVVVYFREID [IL17RB_Y447_YF] showed a phosphorylation enrichment of 0.724. Sequence AVDMTYDGHPV [FLNB_Y1020_V1018M] has a phosphorylation enrichment of 0.768. In the case of NGLVACKDGKL [PMM2_Y76_Y76C], the phosphorylation enrichment is reported as 0.401. Work on FTDGQYWIRGR [ACSF3_Y466_K462T] yielded a phosphorylation enrichment of 0.611. Work on MFVKSYTIHFS [F5_Y2153_YF] yielded a phosphorylation enrichment of 0.851. With EGNEQYEGYCV [GRIA3_Y451_R450Q] the phosphorylation enrichment was 1.26. VSAPEYGPKLK [TBC1D14_Y46_L41V] gave a phosphorylation enrichment of 0.469. With VNFQPYRKHKF [TEX37_Y28_D24N_YF] the phosphorylation enrichment was 0.542. Work on VKKKLYEEIDQ [CYP17A1_Y329] yielded a phosphorylation enrichment of 0.66. For SFPREYGSQEG [RBM10_Y48_YF], the phosphorylation enrichment was 0.461. Sequence KSVEEYANCHL [TF_Y593_P589S] has a phosphorylation enrichment of 0.628. For ALHRPYGCDVE [ABL2_Y80], the phosphorylation enrichment was 0.571. TQNAVYSAANF [DDX5_Y535_G533A_YF] was tested, and the phosphorylation enrichment was 7.53. SPYMLYQYLKQ [RPAP3_Y567_D564Y] gave a phosphorylation enrichment of 3.63. CASQLCPRHKH [DCTN4_Y263_Y263C] showed a phosphorylation enrichment of 0.451. In the case of TWEKPYECVQC [ZNF24_Y335_G331W], the phosphorylation enrichment is reported as 0.534. Sequence SVVVPNEPPEV [TP53_Y220_Y220N] has a phosphorylation enrichment of 0.711. FSNPAYFVLEG [INPPL1_Y986_N982S_YF] gave a phosphorylation enrichment of 0.865. With GLRYGYGVLGG [KRTAP20-2_Y15] the phosphorylation enrichment was 0.487. QDGYSYPSRQM [LDLR_Y847] gave a phosphorylation enrichment of 0.663. For WHFTFYNELRV [ACTC1_Y93_H90Y_YF], the phosphorylation enrichment was 1.27. Work on QEGPEYWDRNT [HLA-B_Y83] yielded a phosphorylation enrichment of 0.757. Work on VQVAFYTVMMN [SPATA17_Y84_M86V_YF] yielded a phosphorylation enrichment of 1.07. In the case of YCVDCYKNFVA [FHL1_Y213], the phosphorylation enrichment is reported as 0.737. Sequence FCRHNYGVGES [HLA-DRB1_Y112_V115G_YF] has a phosphorylation enrichment of 0.606. KRLYAYKMLMA [TMC2_Y209_Q205R] was tested, and the phosphorylation enrichment was 0.684.

The sequences below were run against MERTK (UniProt Q12866) in the same assay as above.
Chain of MERTK (Q12866 whole entry, looked up): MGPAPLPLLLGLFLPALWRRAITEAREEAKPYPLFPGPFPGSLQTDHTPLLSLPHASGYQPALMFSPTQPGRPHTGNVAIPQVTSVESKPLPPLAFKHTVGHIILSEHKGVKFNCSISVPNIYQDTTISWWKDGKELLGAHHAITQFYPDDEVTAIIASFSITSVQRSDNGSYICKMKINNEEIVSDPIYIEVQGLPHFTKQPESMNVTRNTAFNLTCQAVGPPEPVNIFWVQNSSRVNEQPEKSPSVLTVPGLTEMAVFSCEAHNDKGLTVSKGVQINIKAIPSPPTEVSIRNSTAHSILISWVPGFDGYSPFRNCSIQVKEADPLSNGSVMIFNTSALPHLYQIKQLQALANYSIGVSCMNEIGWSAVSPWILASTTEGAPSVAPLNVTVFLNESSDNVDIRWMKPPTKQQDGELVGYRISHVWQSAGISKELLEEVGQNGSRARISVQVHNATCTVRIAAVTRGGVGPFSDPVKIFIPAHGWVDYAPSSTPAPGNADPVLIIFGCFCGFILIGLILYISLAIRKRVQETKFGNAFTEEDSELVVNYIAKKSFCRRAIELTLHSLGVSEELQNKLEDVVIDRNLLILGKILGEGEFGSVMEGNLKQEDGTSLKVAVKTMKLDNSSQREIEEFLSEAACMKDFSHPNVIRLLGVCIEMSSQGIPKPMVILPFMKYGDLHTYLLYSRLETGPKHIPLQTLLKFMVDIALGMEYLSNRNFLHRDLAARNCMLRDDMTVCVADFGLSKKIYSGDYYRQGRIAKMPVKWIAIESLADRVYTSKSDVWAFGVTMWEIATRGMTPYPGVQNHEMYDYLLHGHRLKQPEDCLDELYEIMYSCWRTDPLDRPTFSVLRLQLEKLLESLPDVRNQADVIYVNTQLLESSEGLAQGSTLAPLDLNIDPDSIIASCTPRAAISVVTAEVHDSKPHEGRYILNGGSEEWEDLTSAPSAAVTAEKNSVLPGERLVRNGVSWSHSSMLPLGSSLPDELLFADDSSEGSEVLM
PTYENYANSTQ [SLC12A3_Y70_H69N] was tested, and the phosphorylation enrichment was 0.927. VPFARYLAMNK [HARS1_Y138] was tested, and the phosphorylation enrichment was 0.376. Sequence STEEQYRICQV [EFHC1_Y115_R118C] has a phosphorylation enrichment of 0.492. KFVVVYFREID [IL17RB_Y447_YF] was tested, and the phosphorylation enrichment was 0.362. Work on AVDMTYDGHPV [FLNB_Y1020_V1018M] yielded a phosphorylation enrichment of 0.593. Work on NGLVACKDGKL [PMM2_Y76_Y76C] yielded a phosphorylation enrichment of 0.367. With FTDGQYWIRGR [ACSF3_Y466_K462T] the phosphorylation enrichment was 0.521. With MFVKSYTIHFS [F5_Y2153_YF] the phosphorylation enrichment was 0.456. In the case of EGNEQYEGYCV [GRIA3_Y451_R450Q], the phosphorylation enrichment is reported as 0.422. With VSAPEYGPKLK [TBC1D14_Y46_L41V] the phosphorylation enrichment was 0.394. VNFQPYRKHKF [TEX37_Y28_D24N_YF] gave a phosphorylation enrichment of 0.43. VKKKLYEEIDQ [CYP17A1_Y329] showed a phosphorylation enrichment of 0.347. Work on SFPREYGSQEG [RBM10_Y48_YF] yielded a phosphorylation enrichment of 0.48. In the case of KSVEEYANCHL [TF_Y593_P589S], the phosphorylation enrichment is reported as 0.521. ALHRPYGCDVE [ABL2_Y80] was tested, and the phosphorylation enrichment was 0.357. Work on TQNAVYSAANF [DDX5_Y535_G533A_YF] yielded a phosphorylation enrichment of 8.98. SPYMLYQYLKQ [RPAP3_Y567_D564Y] was tested, and the phosphorylation enrichment was 9.38. CASQLCPRHKH [DCTN4_Y263_Y263C] was tested, and the phosphorylation enrichment was 0.358. TWEKPYECVQC [ZNF24_Y335_G331W] was tested, and the phosphorylation enrichment was 0.492. SVVVPNEPPEV [TP53_Y220_Y220N] showed a phosphorylation enrichment of 0.439. Sequence FSNPAYFVLEG [INPPL1_Y986_N982S_YF] has a phosphorylation enrichment of 3.43. Sequence GLRYGYGVLGG [KRTAP20-2_Y15] has a phosphorylation enrichment of 0.413. QDGYSYPSRQM [LDLR_Y847] showed a phosphorylation enrichment of 0.983. WHFTFYNELRV [ACTC1_Y93_H90Y_YF] was tested, and the phosphorylation enrichment was 0.392. QEGPEYWDRNT [HLA-B_Y83] showed a phosphorylation enrichment of 0.49. VQVAFYTVMMN [SPATA17_Y84_M86V_YF] was tested, and the phosphorylation enrichment was 1.84. For YCVDCYKNFVA [FHL1_Y213], the phosphorylation enrichment was 0.722. Sequence FCRHNYGVGES [HLA-DRB1_Y112_V115G_YF] has a phosphorylation enrichment of 0.372. For KRLYAYKMLMA [TMC2_Y209_Q205R], the phosphorylation enrichment was 0.348.

Each sequence was assayed against Fes (UniProt P07332) in the same assay as above.
Chain of Fes (P07332 whole entry, looked up): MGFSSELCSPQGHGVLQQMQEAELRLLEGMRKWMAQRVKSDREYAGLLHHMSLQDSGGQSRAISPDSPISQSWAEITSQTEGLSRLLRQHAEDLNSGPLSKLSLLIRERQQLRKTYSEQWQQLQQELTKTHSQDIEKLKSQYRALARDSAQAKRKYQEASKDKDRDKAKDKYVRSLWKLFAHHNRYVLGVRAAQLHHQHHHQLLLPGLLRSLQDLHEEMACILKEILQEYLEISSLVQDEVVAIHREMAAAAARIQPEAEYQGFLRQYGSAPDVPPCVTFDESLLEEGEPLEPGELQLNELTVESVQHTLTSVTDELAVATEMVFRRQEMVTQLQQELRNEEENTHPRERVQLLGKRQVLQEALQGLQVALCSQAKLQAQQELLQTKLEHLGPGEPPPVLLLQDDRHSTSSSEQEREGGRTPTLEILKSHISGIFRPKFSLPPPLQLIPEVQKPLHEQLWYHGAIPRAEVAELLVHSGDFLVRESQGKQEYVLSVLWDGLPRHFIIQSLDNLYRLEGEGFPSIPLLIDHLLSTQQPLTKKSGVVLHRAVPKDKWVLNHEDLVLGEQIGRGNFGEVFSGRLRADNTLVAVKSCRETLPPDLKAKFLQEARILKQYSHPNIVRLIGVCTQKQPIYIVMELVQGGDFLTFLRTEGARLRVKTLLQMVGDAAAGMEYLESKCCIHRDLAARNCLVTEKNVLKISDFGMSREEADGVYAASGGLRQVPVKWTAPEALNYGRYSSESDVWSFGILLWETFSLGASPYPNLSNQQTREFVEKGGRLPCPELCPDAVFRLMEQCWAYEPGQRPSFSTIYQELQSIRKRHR
PTYENYANSTQ [SLC12A3_Y70_H69N] showed a phosphorylation enrichment of 0.743. VPFARYLAMNK [HARS1_Y138] showed a phosphorylation enrichment of 0.516. STEEQYRICQV [EFHC1_Y115_R118C] showed a phosphorylation enrichment of 1.53. KFVVVYFREID [IL17RB_Y447_YF] was tested, and the phosphorylation enrichment was 1.27. With AVDMTYDGHPV [FLNB_Y1020_V1018M] the phosphorylation enrichment was 0.926. With NGLVACKDGKL [PMM2_Y76_Y76C] the phosphorylation enrichment was 0.43. FTDGQYWIRGR [ACSF3_Y466_K462T] showed a phosphorylation enrichment of 0.992. MFVKSYTIHFS [F5_Y2153_YF] showed a phosphorylation enrichment of 1.19. EGNEQYEGYCV [GRIA3_Y451_R450Q] was tested, and the phosphorylation enrichment was 1.05. In the case of VSAPEYGPKLK [TBC1D14_Y46_L41V], the phosphorylation enrichment is reported as 0.678. VNFQPYRKHKF [TEX37_Y28_D24N_YF] showed a phosphorylation enrichment of 0.545. In the case of VKKKLYEEIDQ [CYP17A1_Y329], the phosphorylation enrichment is reported as 0.98. SFPREYGSQEG [RBM10_Y48_YF] was tested, and the phosphorylation enrichment was 0.755. KSVEEYANCHL [TF_Y593_P589S] showed a phosphorylation enrichment of 0.85. In the case of ALHRPYGCDVE [ABL2_Y80], the phosphorylation enrichment is reported as 0.782. Sequence TQNAVYSAANF [DDX5_Y535_G533A_YF] has a phosphorylation enrichment of 0.694. SPYMLYQYLKQ [RPAP3_Y567_D564Y] gave a phosphorylation enrichment of 1.24. For CASQLCPRHKH [DCTN4_Y263_Y263C], the phosphorylation enrichment was 0.533. Work on TWEKPYECVQC [ZNF24_Y335_G331W] yielded a phosphorylation enrichment of 0.964. In the case of SVVVPNEPPEV [TP53_Y220_Y220N], the phosphorylation enrichment is reported as 1.43. Sequence FSNPAYFVLEG [INPPL1_Y986_N982S_YF] has a phosphorylation enrichment of 0.895. Sequence GLRYGYGVLGG [KRTAP20-2_Y15] has a phosphorylation enrichment of 0.605. Sequence QDGYSYPSRQM [LDLR_Y847] has a phosphorylation enrichment of 1.21. WHFTFYNELRV [ACTC1_Y93_H90Y_YF] gave a phosphorylation enrichment of 1.5. QEGPEYWDRNT [HLA-B_Y83] gave a phosphorylation enrichment of 1.29. With VQVAFYTVMMN [SPATA17_Y84_M86V_YF] the phosphorylation enrichment was 1.44. For YCVDCYKNFVA [FHL1_Y213], the phosphorylation enrichment was 0.832. For FCRHNYGVGES [HLA-DRB1_Y112_V115G_YF], the phosphorylation enrichment was 0.687. KRLYAYKMLMA [TMC2_Y209_Q205R] showed a phosphorylation enrichment of 0.869.

What follows are sequences tested on c-Src in the same assay as above.
Sequence PTYENYANSTQ [SLC12A3_Y70_H69N] has a phosphorylation enrichment of 5.43. VPFARYLAMNK [HARS1_Y138] gave a phosphorylation enrichment of 0.362. Sequence STEEQYRICQV [EFHC1_Y115_R118C] has a phosphorylation enrichment of 0.566. With KFVVVYFREID [IL17RB_Y447_YF] the phosphorylation enrichment was 0.408. AVDMTYDGHPV [FLNB_Y1020_V1018M] showed a phosphorylation enrichment of 3.61. Work on NGLVACKDGKL [PMM2_Y76_Y76C] yielded a phosphorylation enrichment of 0.387. With FTDGQYWIRGR [ACSF3_Y466_K462T] the phosphorylation enrichment was 0.588. Sequence MFVKSYTIHFS [F5_Y2153_YF] has a phosphorylation enrichment of 0.48. In the case of EGNEQYEGYCV [GRIA3_Y451_R450Q], the phosphorylation enrichment is reported as 0.506. For VSAPEYGPKLK [TBC1D14_Y46_L41V], the phosphorylation enrichment was 0.369. Work on VNFQPYRKHKF [TEX37_Y28_D24N_YF] yielded a phosphorylation enrichment of 0.431. For VKKKLYEEIDQ [CYP17A1_Y329], the phosphorylation enrichment was 0.361. In the case of SFPREYGSQEG [RBM10_Y48_YF], the phosphorylation enrichment is reported as 0.475. Work on KSVEEYANCHL [TF_Y593_P589S] yielded a phosphorylation enrichment of 0.408. With ALHRPYGCDVE [ABL2_Y80] the phosphorylation enrichment was 0.324. Sequence TQNAVYSAANF [DDX5_Y535_G533A_YF] has a phosphorylation enrichment of 8.46. SPYMLYQYLKQ [RPAP3_Y567_D564Y] showed a phosphorylation enrichment of 5.57. CASQLCPRHKH [DCTN4_Y263_Y263C] was tested, and the phosphorylation enrichment was 0.312. TWEKPYECVQC [ZNF24_Y335_G331W] gave a phosphorylation enrichment of 0.887. SVVVPNEPPEV [TP53_Y220_Y220N] was tested, and the phosphorylation enrichment was 0.517. Sequence FSNPAYFVLEG [INPPL1_Y986_N982S_YF] has a phosphorylation enrichment of 0.809. For GLRYGYGVLGG [KRTAP20-2_Y15], the phosphorylation enrichment was 0.9. QDGYSYPSRQM [LDLR_Y847] showed a phosphorylation enrichment of 0.734. With WHFTFYNELRV [ACTC1_Y93_H90Y_YF] the phosphorylation enrichment was 0.42. QEGPEYWDRNT [HLA-B_Y83] was tested, and the phosphorylation enrichment was 0.485. In the case of VQVAFYTVMMN [SPATA17_Y84_M86V_YF], the phosphorylation enrichment is reported as 0.71. YCVDCYKNFVA [FHL1_Y213] was tested, and the phosphorylation enrichment was 0.507. FCRHNYGVGES [HLA-DRB1_Y112_V115G_YF] showed a phosphorylation enrichment of 0.373. With KRLYAYKMLMA [TMC2_Y209_Q205R] the phosphorylation enrichment was 0.399.
